The EC50 is the concentration needed to bring the measured effect to its halfway point. A high value points to weaker potency.

Sequences and labels used below:
B1: human carcinoembryonic antigen (hCEA) protein, purified (natural protein, UniProt P06731 35-685, looked up)
chain: KLTIESTPFNVAEGKEVLLLVHNLPQHLFGYSWYKGERVDGNRQIIGYVIGTQQATPGPAYSGREIIYPNASLLIQNIIQNDTGFYTLHVIKSDLVNEEATGQFRVYPELPKPSISSNNSKPVEDKDAVAFTCEPETQDATYLWWVNNQSLPVSPRLQLSNGNRTLTLFNVTRNDTASYKCETQNPVSARRSDSVILNVLYGPDAPTISPLNTSYRSGENLNLSCHAASNPPAQYSWFVNGTFQQSTQELFIPNITVNNSGSYTCQAHNSDTGLNRTTVTTITVYAEPPKPFITSNNSNPVEDEDAVALTCEPEIQNTTYLWWVNNQSLPVSPRLQLSNDNRTLTLLSVTRNDVGPYECGIQNELSVDHSDPVILNVLYGPDDPTISPSYTYYRPGVNLSLSCHAASNPPAQYSWLIDGNIQQHTQELFISNITEKNSGLYTCQANNSASGHSRTTVKTITVSAELPKPSISSNNSKPVEDKDAVAFTCEPEAQNTTYLWWVNGQSLPVSPRLQLSNGNRTLTLFNVTRNDARAYVCGIQNSVSANRSDPVTLDVLYGPDTPIISPPDSSYLSGANLNLSCHSASNPSPQYSWRINGIPQQHTQVLFIAKITPNNNGTYACFVSNLATGRNNSIVKSITVSASGTSPGLSA

For test [1], the target named is anti-EGFR VHH122-fiber-fibritin chimera displayed on the AdVHH122Luc vector (human adenovirus serotype 5 | …). Briefly: ELISA. Background: An ELISA detects its analyte on a solid surface through an enzyme-linked reagent.
The target in test [2] is B1. Briefly: ELISA.

B1: the binding result in test [1] is given as “no binding”.

B2: anti-hCEA VHH JJB-B5, thioredoxin fusion protein (VHH)
VHH: QVQLVETGGGLVQPGGSLRPSCTASGSIFSIYAMGWYRQASGKQRELVALITRDEVFNYADSVKGRFTISRDNAKDTVYLQMNSLKPEDTAVYYCWVETVNDHYNSGVEDYWGQGTQVTVSS
Regarding B2, the EC50 in test [2] is approximately 50000 pM.

B3: anti-hCEA VHH JJB-D1, thioredoxin fusion protein (VHH)
VHH: QVQLVESGGLVQAGGSLRPSCAASGSIFLQNAMGWYRQVPGKQRELVAAITSVDSTNYADSVKGRFTISRDNAKNTVYLQMNSLKPEDTAVYYCNAPWNSDYHWGKGTLVTVSS
For B3, in test [2], the EC50 is approximately 1000 pM.

B4: anti-hCEA VHH JJB-A3, thioredoxin fusion protein (VHH)
VHH: QVQLVETGGGLVQPGGSLRLSCAASGRISDINAMGWYRQAPGKQRELVAAITSVGSNYVDSVKGRFTISKDNAKNTVYLQMYSLNPEDTAVYYCNTQCGTWLVCDGRDQWGKGTLVTVSS
In the case of B4, the EC50 in test [2] is approximately 150 pM.

B5: anti-hCEA VHH JJB-B2, thioredoxin fusion protein (VHH)
VHH: QVQLVETGGGLVQPGGSLRLSCAASESIFSTYAMGWYRQAPGKQRELVAAITTNDIANYADSVKGRFTISRDNAKNTVYLQMNSLNPEDTAVYYCNAIFPPYNYWGQGTQVTVSS
Molecule B5 registered an EC50 in test [2] of approximately 200 pM.

These data come from article PMC4157633 (Laboratory investigation; a journal of technical methods …, 2014).
